According to publication PMC8669613:
Where two headings read alike, the source gives them in different places.

Experiments:
[1] = biological target: His-tagged ASH/RhoGAP domain of OCRL (536aa-901aa) (human) (UniProt Q01968); assay: ELISA
[2] = biological target: His-tagged ASH/RhoGAP domain of OCRL (536aa-901aa) (human) (UniProt Q01968); assay: ELISA; remark: listed apart in the source
[3] = biological target: His-tagged ASH/RhoGAP domain of OCRL (536aa-901aa) (human) (UniProt Q01968); assay: ELISA; remark: listed apart in the source
[4] = biological target: HA-mCherry-tagged SdhA (Legionella pneumophila); assay: co-IP

Chain of His-tagged ASH/RhoGAP domain of OCRL (536aa-901aa) (human) (Q01968 536-901): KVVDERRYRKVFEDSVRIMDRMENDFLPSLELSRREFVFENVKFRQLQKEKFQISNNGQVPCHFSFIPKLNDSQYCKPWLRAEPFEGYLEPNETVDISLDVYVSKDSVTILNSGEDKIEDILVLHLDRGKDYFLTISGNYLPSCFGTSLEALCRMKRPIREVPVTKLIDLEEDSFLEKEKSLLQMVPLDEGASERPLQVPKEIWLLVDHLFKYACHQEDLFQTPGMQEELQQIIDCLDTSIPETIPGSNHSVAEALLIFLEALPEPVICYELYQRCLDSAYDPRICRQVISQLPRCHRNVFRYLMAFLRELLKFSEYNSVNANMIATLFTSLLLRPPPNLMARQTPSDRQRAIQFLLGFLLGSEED
Chain of AP complex beta subunit (P63010 whole entry, one chain of several): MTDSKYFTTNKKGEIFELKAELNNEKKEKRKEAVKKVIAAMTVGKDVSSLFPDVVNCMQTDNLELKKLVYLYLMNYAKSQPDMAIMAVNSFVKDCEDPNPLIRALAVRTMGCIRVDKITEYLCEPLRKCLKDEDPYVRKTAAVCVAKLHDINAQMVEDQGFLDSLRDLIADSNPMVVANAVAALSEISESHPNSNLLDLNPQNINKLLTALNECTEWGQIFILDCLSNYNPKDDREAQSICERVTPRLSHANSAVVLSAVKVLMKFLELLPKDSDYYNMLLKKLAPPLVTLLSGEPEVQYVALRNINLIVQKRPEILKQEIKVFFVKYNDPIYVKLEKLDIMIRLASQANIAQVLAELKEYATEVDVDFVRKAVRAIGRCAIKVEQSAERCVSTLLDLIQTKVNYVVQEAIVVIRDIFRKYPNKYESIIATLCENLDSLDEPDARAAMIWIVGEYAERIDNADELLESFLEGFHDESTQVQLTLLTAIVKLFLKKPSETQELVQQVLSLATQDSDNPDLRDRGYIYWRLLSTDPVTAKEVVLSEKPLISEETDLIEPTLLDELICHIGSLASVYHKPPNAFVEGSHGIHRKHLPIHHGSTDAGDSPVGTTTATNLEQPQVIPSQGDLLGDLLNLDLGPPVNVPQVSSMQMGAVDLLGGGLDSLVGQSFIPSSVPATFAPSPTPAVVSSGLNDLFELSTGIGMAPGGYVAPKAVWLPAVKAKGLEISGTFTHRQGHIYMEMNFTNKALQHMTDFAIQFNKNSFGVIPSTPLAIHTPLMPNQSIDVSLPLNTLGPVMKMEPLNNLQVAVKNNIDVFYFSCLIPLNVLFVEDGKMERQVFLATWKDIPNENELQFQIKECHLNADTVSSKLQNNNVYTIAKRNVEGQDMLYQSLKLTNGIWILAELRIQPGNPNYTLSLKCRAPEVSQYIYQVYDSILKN
Chain of GFP-tagged, full-length OCRL (Q01968 whole entry): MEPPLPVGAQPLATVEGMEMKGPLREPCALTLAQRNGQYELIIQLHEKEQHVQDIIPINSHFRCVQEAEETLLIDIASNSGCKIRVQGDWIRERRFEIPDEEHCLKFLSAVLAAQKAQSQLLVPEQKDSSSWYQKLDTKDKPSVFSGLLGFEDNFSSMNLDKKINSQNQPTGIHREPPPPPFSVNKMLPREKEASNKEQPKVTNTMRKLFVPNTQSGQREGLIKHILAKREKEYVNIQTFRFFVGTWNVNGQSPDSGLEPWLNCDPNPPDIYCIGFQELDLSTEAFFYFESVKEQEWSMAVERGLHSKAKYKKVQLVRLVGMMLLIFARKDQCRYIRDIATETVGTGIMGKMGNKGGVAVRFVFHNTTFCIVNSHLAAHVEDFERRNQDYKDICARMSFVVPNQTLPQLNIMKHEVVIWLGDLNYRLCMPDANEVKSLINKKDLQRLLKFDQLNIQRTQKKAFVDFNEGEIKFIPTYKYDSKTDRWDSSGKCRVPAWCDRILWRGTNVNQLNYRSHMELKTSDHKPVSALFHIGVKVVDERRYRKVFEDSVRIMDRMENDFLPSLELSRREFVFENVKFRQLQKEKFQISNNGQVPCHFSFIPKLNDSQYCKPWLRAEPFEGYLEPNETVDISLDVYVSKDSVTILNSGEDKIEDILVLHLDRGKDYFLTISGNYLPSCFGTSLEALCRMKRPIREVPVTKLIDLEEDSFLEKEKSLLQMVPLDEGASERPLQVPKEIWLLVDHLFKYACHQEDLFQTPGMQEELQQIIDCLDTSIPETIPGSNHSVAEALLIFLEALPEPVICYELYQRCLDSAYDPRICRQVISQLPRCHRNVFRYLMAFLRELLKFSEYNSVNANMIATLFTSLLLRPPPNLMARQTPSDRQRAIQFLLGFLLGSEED

GST-SdhA-CBM2A (1029-1080aa) (from UniProt Q6RCQ3 1029-1080) (domain or fragment)
EC50 [1]: 27.2 nM
EC50 [2]: 8.1 nM

GST-SdhA-CBM2 (1029-1260aa) (from UniProt Q6RCQ3 1029-1260) (domain or fragment)
EC50 [3]: 87.4 nM
EC50 [1]: 80.7 nM

GFP-tagged, full-length OCRL (from UniProt Q01968 1-901) (natural protein)
fold co-precipitation above the HA-mCherry control [4]: 27.5 fold

AP complex beta subunit (from UniProt P63010 1-937) (natural protein)
fold co-precipitation above the HA-mCherry control [4]: 29.5 fold
